Assay results published in patent US11827701B2, “IL-6 binding molecules” (argenx BV, priority 2012, dated 2023).
Numbering of substitutions follows the chain as printed.

What was measured:
Assay type in all cases: binding
[1] = target: T1, bacterially produced human IL-6 (Homo sapiens, UniProt P05231); test: Surface plasmon resonance (Biacore), bacterially produced human IL-6 coated on CM5 chip
T1 construct: His
Experimental: (§1) The binding kinetics of IL-6-specific Fabs that were able to cross-compete with the B-E8 antibody was assessed using surface plasmon resonance (Biacore). Specifically, biotinylated (prokaryotic) IL-6 was captured on a streptavidin biacore sensor chip (CM5-SA) and different concentrations of purified Fabs were injected during 3 minutes following by a 5 minute wash with buffer. From the washing phase the off-rate (kd) was determined, while from the injection phase the on-rate (ka) was calculated using the concentration and off-rate as parameters. […] The binding kinetics of antagonistic purified Fabs (Table 3) and periplasmic fractions of Fab-expressing bacteria (Table 4) were also evaluated by surface plasmon resonance (Biacore) using both bacterially and eukaryotically produced human IL-6 directly coated on a CM5 chip. The Fabs tested had off-rates between 6×10^−4 and 2×10^−5 s^−1.
(§2) VL chain shuffling was used to improve the affinity of the Fabs 17F10, 18C7, 18C9, 18C11, 20A4, 29B11, 16D2 and 28A6. In this method, the heavy chain of these clones (as a VHCH1 fragment) was reintroduced into the primary phagemid-light chain library (see Example 1). Affinity selections were performed to select for chain shuffled Fabs with an improved affinity for IL-6. The binding kinetics of chain shuffled Fabs were evaluated by surface plasmon resonance (Biacore) using both bacterially and eukaryotically produced human IL-6, and cynomolgus monkey IL-6 (Tables 5-7). The VH and VL amino acid sequences of exemplary IL-6-specific Fabs selected by the VL chain shuffling method are set forth in Table 14 below.
(§3) VH chain shuffling was also used to improve the affinity of the Fab 24D10. In this method, the light chain of 24D10 was reintroduced into the primary phagemid-heavy chain library (see Example 1) and selected using an off-rate assay. In this type of selection, the phage were allowed to bind to antigen on a substrate for 1.5 to 2 hours. At round 2, after 15 washes with PBS-Tween, an additional wash was performed with the presence of excess soluble IL-6. […] This procedure avoids re-binding of such phage to the coated target. […] The binding kinetics of chain shuffled Fabs and the benchmark antibodies, BE8 and GL18, were evaluated by surface plasmon resonance (Biacore) using both bacterially and eukaryotically produced human IL-6 (Tables 8 and 9). The VH and VL amino acid sequences of exemplary IL-6-specific Fabs selected by the VH chain shuffling method are set forth in Table 14 below. […]

[2] = target: T2, eukaryotically produced human IL-6 (Homo sapiens, UniProt P05231); test: Surface plasmon resonance (Biacore), eukaryotically produced human IL-6 coated on CM5 chip; settings: for Koff eukIL-6: purified chain-shuffled Fabs
T2 construct: purchased Humanzyme HZ-1044; host or cells: Human Embryonic kidney cells
Experimental: as §1, §2, §3

[3] = target: biotinylated (prokaryotic) IL-6 (Homo sapiens, UniProt P05231); test: Surface plasmon resonance (Biacore), biotinylated IL-6 captured on streptavidin sensor chip; settings: purified Fab
Experimental: as §1

cynomolgus monkey IL-6 = target: T3, cynomolgus monkey IL-6 (Macaca fascicularis, UniProt P79341); test: Surface plasmon resonance (Biacore), cynomolgus monkey IL-6; settings: for Koff HIS-cyIL-6: purified chain-shuffled Fabs; for KA / ka / kd: cy/cyno, periplasmic fractions
T3 construct: His
Experimental: as §2

[4] = Bact, purified 24D10 chain-shuffled Fabs
[5] = Euk IL-6, purified 24D10 chain-shuffled Fabs
[6] = bact, periplasmic fractions, 29B11 chain shuffled
[7] = euk, periplasmic fractions, 29B11 chain shuffled
[8] = bact, periplasmic fractions, 28A6 chain-shuffled
[9] = euk, periplasmic fractions, 28A6 chain-shuffled

T2 sequence (P05231 30-212): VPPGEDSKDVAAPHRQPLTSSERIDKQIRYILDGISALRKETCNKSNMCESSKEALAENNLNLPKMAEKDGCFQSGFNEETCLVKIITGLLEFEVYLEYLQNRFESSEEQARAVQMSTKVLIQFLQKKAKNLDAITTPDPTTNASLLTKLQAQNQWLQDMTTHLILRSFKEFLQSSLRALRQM
T1 sequence (P05231 30-212): as above
Chain of biotinylated (prokaryotic) IL-6 (P05231 30-212): as above
T3 sequence (P79341 28-212): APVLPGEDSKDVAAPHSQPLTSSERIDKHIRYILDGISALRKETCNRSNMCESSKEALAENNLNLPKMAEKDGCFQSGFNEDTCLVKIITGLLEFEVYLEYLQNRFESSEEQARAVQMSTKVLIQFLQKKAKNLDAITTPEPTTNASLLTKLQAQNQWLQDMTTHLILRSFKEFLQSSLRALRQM

B1: 24D10: antagonistic IL-6-specific Fab clone, parental of 61H7 (antibody, listed as Lama glama, V domains shown)
VH: QLQVVESGGGLVQPGGSLRLSCAASGFTFSSYAMSWVRQAPGKGPEWVSRISSGGGSTSYADSVKGRFTISRDNAKNTLYLQMNSLKPEDTAVYYCANRAGWGMGDYWGQGTQVTVSS
VL: QTVVTQEPSLSVSPGGTVTLTCGLSSGSVTASNYPGWFQQTPGQAPRALIYSTNDRHSGVPSRFSGSISGNKAALTITGAQPEDEADYYCALDIGDITEFGGGTHLTVLG
ka [1, 4]: 210000 M⁻¹ s⁻¹
kd [1, 4]: 0.0001 s⁻¹
ka [2, 5]: 250000 M⁻¹ s⁻¹
kd [2, 5]: 0.0001 s⁻¹
binding ([2]; periplasmic fractions ('pur' = purified Fab), IL-6 form not stated): 301
KA [3]: 3.7e+09 M⁻¹
Rmax [3]: 40.6 RU
ka [3]: 62700 M⁻¹ s⁻¹
kd [3]: 1.69e-05 s⁻¹
off-rates (range) [3]: ~10^−5 s^−1

B2: 41B5: light chain shuffled Fab of parental 17F10 (antibody, V domains shown)
VH: EVQLQESGPGLVKPSQTLSLTCTVSGGSIATSYYAWSWIRQPPGKGLEWMGVIDYDGDTYYKPSLKSRTSISRDTSKNQFSLQLSSVTPEDTAVYYCARAGLGDSYYLGTYYAMDYWGKGTLVTVSS
VL: QSALTQPPSMSGTLGKTLTISCNGTSSDIGSGDYVSWYQQLPGTTPKLLIEGVTTRASGIPDRFSASKSDNTASLTISGLQSEDEATYYCASYRETNNVVFGGGTHLTVLS
Koff HIS-cyIL-6 (cynomolgus monkey IL-6): 0.00017 s⁻¹
Koff eukIL-6 [2]: 0.0002 s⁻¹

B3: 17F10: antagonistic IL-6-specific Fab clone from immunized llama (antibody, listed as Lama glama, V domains shown)
VH: B2 VH
VL: QAGLTQPPSVSGSPGKTVTISCAGTTSDVGTGNFVSWYQQLPGMAPKLLIYDVNKRASGIADRFSGSKSGNTASLTISGLQSEDEADYYCASYRSLNNVVFGGGTHLTVLG
Koff HIS-cyIL-6 (cynomolgus monkey IL-6): 0.00078 s⁻¹
Koff HIS-huIL-6 ([1]; purified chain-shuffled Fabs): 0.00088 s⁻¹
Koff eukIL-6 [2]: 0.00077 s⁻¹

B4: 55C1a: 29B11 chain shuffled Fab, periplasmic fraction (antibody, V domains shown)
VH: EVQLVESGGGLVQPGGSLRLSCAASGFTFSSYAMSWVRQAPGKGLEWVSRISSGGISTYYADSVKGRFTISRDNAKNTLYLQMNSLKPEDTAVYYCVRYAWGVQWAFDFWGQGTQVTVSS
VL: ALNFMLTQPPSVSGSPGKTVTISCAGTSSDVGYGNYVSWYQQLPGTAPKLLIYNVNKRASGITDRFSGSKSGNTASLTISGLQSEDEADYYCASYRTGDNAAFGGGTKLTVLG
KA (cynomolgus monkey IL-6; 29B11 chain shuffled): 1.25e+09 M⁻¹
ka (cynomolgus monkey IL-6; 29B11 chain shuffled): 475000 M⁻¹ s⁻¹
kd (cynomolgus monkey IL-6; 29B11 chain shuffled): 0.000381 s⁻¹
KA [1, 6]: 7.6e+09 M⁻¹
ka [1, 6]: 561000 M⁻¹ s⁻¹
kd [1, 6]: 7.38e-05 s⁻¹
KA [2, 7]: 5.55e+09 M⁻¹
ka [2, 7]: 440000 M⁻¹ s⁻¹
kd [2, 7]: 7.93e-05 s⁻¹

B5: 55E2b: 29B11 chain shuffled Fab, periplasmic fraction (antibody, V domains shown)
VH: B4 VH
VL: AQSVLTQPPSVSGSPGKTVTISCAGTSSDVGYGNYVSWYQQLPGMAPKLLIYDVNKRASGIADRFSGSKFANTASLTISGLQSEDEADYYCASYKRGDNAVFGGGTKLTVLG
KA (cynomolgus monkey IL-6; 29B11 chain shuffled): 1.39e+09 M⁻¹
ka (cynomolgus monkey IL-6; 29B11 chain shuffled): 468000 M⁻¹ s⁻¹
kd (cynomolgus monkey IL-6; 29B11 chain shuffled): 0.000336 s⁻¹
KA [1, 6]: 7.28e+09 M⁻¹
ka [1, 6]: 489000 M⁻¹ s⁻¹
kd [1, 6]: 6.72e-05 s⁻¹
KA [2, 7]: 6.34e+09 M⁻¹
ka [2, 7]: 414000 M⁻¹ s⁻¹
kd [2, 7]: 6.53e-05 s⁻¹

B6: 47C2 (R4): 29B11 chain shuffled Fab, periplasmic fraction (antibody, listed as Lama glama, V domains shown)
VH: B4 VH
VL: ALSYDLTQPPSVSGSPGKTVTISCAGTSSDVGYGNYVSWYQQLPGMAPKILIYDVNKRASGIADRFSGSKSGNTASLTISGLQSEDEADYYCASYRRGETIVFGGGTHLTVLG
KA (cynomolgus monkey IL-6; 29B11 chain shuffled): 6.48e+08 M⁻¹
ka (cynomolgus monkey IL-6; 29B11 chain shuffled): 851000 M⁻¹ s⁻¹
kd (cynomolgus monkey IL-6; 29B11 chain shuffled): 0.00131 s⁻¹
KA [1, 6]: 3.56e+09 M⁻¹
ka [1, 6]: 1.12e+06 M⁻¹ s⁻¹
kd [1, 6]: 0.000315 s⁻¹
KA [2, 7]: 3.54e+09 M⁻¹
ka [2, 7]: 849000 M⁻¹ s⁻¹
kd [2, 7]: 0.00024 s⁻¹

B7: 48C10: 29B11 chain shuffled Fab, periplasmic fraction (antibody, listed as Lama glama, V domains shown)
VH: B4 VH
VL: AQSVLTQPPSVSGSPGQTVTISCAGTSEDVGYGNYVSWYQQLPGMAPKLLIYDVNKRASGIADRFSGSKSGNTASLTISGLQSEDEADYYCASYRRTIDNIFGGGTHLTVLG
KA (cynomolgus monkey IL-6; 29B11 chain shuffled): 4.1e+08 M⁻¹
ka (cynomolgus monkey IL-6; 29B11 chain shuffled): 180000 M⁻¹ s⁻¹
kd (cynomolgus monkey IL-6; 29B11 chain shuffled): 0.00044 s⁻¹
KA [1, 6]: 1.43e+09 M⁻¹
ka [1, 6]: 262000 M⁻¹ s⁻¹
kd [1, 6]: 0.000184 s⁻¹

B8: 55A11d: 28A6 chain-shuffled Fab, periplasmic fraction (antibody, V domains shown)
VH: QVQLVESGGGLVQPGGSLRLSCAASGFTFSNYYMTWVRQAPGKGLEWVSSIYSFSGDTAYADSVKGRFTISRDNAKNTLYLQMNSLKSEDTAVYYCTRNLGGVVVTTNGYDYWGQGTQVTVSS
VL: DIQMTQSPSSLPTSLGDSVTITCQASQSISDELSWYQQKPGQTPKLLIYGASRLQTGVPSRFSGRGSGTSFTLTISGLEAEDLATYYCLQGYSWPFMFGQGTKVELK
KA (cynomolgus monkey IL-6; 28A6 chain-shuffled): 1.77e+09 M⁻¹
ka (cynomolgus monkey IL-6; 28A6 chain-shuffled): 144000 M⁻¹ s⁻¹
kd (cynomolgus monkey IL-6; 28A6 chain-shuffled): 8.17e-05 s⁻¹
KA [1, 8]: 2.78e+09 M⁻¹
ka [1, 8]: 188000 M⁻¹ s⁻¹
kd [1, 8]: 6.76e-05 s⁻¹
KA [2, 9]: 1.59e+09 M⁻¹
ka [2, 9]: 101000 M⁻¹ s⁻¹
kd [2, 9]: 6.36e-05 s⁻¹

B9: 55C11f: 28A6 chain-shuffled Fab, periplasmic fraction (antibody, V domains shown)
VH: B8 VH
VL: B8 VL with M4L, P12S, T13A, R53K, R65S, S93R
KA (cynomolgus monkey IL-6; 28A6 chain-shuffled): 3.2e+09 M⁻¹
ka (cynomolgus monkey IL-6; 28A6 chain-shuffled): 285000 M⁻¹ s⁻¹
kd (cynomolgus monkey IL-6; 28A6 chain-shuffled): 8.9e-05 s⁻¹
KA [1, 8]: 3.29e+09 M⁻¹
ka [1, 8]: 228000 M⁻¹ s⁻¹
kd [1, 8]: 6.94e-05 s⁻¹
KA [2, 9]: 3.1e+09 M⁻¹
ka [2, 9]: 201000 M⁻¹ s⁻¹
kd [2, 9]: 6.47e-05 s⁻¹

B10: 55E10g1: 28A6 chain-shuffled Fab, periplasmic fraction (antibody, V domains shown)
VH: B8 VH
VL: B8 VL with R53K, R65S
KA (cynomolgus monkey IL-6; 28A6 chain-shuffled): 2.1e+09 M⁻¹
ka (cynomolgus monkey IL-6; 28A6 chain-shuffled): 145000 M⁻¹ s⁻¹
kd (cynomolgus monkey IL-6; 28A6 chain-shuffled): 6.88e-05 s⁻¹
KA [1, 8]: 3.18e+09 M⁻¹
ka [1, 8]: 193000 M⁻¹ s⁻¹
kd [1, 8]: 6.09e-05 s⁻¹
KA [2, 9]: 2.62e+09 M⁻¹
ka [2, 9]: 146000 M⁻¹ s⁻¹
kd [2, 9]: 5.59e-05 s⁻¹

B11: 48H1g2, R4: 28A6 chain-shuffled Fab, periplasmic fraction (antibody, V domains shown)
VH: B8 VH
VL: B8 VL with I2V, Q3V, R53K, R65S
KA (cynomolgus monkey IL-6; 28A6 chain-shuffled): 1.18e+09 M⁻¹
ka (cynomolgus monkey IL-6; 28A6 chain-shuffled): 112000 M⁻¹ s⁻¹
kd (cynomolgus monkey IL-6; 28A6 chain-shuffled): 9.46e-05 s⁻¹
KA [1, 8]: 2.93e+09 M⁻¹
ka [1, 8]: 206000 M⁻¹ s⁻¹
kd [1, 8]: 7.04e-05 s⁻¹
KA [2, 9]: 1.56e+09 M⁻¹
ka [2, 9]: 106000 M⁻¹ s⁻¹
kd [2, 9]: 6.8e-05 s⁻¹
